Laboratory results taken from article PMC12409439 (The Journal of Biological Chemistry, 2025).

Biological target: the molecule itself
Test: cryo-EM structure; Dmc1 (2.5 uM) with 0.125 uM 96-mer ssDNA in HR buffer with 1.5 mM CaCl2 and 5 mM ADP, 30 °C, 5 min, then 8 mM CHAPSO; interdigitated filaments deconvolved into single filaments; filament formation required the ssDNA

B1: Saccharomyces cerevisiae Dmc1 (natural protein, S. cerevisiae)
chain: MSVTGTEIDSDTAKNILSVDELQNYGINASDLQKLKSGGIYTVNTVLSTTRRHLCKIKGLSEVKVEKIKEAAGKIIQVGFIPATVQLDIRQRVYSLSTGSKQLDSILGGGIMTMSITEVFGEFRCGKTQMSHTLCVTTQLPREMGGGEGKVAYIDTEGTFRPERIKQIAEGYELDPESCLANVSYARALNSEHQMELVEQLGEELSSGDYRLIVVDSIMANFRVDYCGRGELSERQQKLNQHLFKLNRLAEEFNVAVFLTNQVQSDPGASALFASADGRKPIGGHVLAHASATRILLRKGRGDERVAKLQDSPDMPEKECVYVIGEKGITDSSD
notes: Dmc1, S. cerevisiae, expressed from a plasmid encoding 6XHisDmc1; Stood as a helical filament assembled with a 96-mer ssDNA, ADP, Mg2+ and Ca2+; six protomers were modelled; No removal of the His tag is described; The N-terminal end of the tag is read from the printed name 6XHisDmc1; also called Dmc1-ADP; source: E. coli BL21 (DE3) Rosetta2, purified (Talon resin, heparin sepharose)
Question: Does B1 bind?
Answer: binds
